# Measured values published in patent US20210253725A1 (BIONTECH, published 2021).
# T1: CD27 expressed on the cell surface (HT1080_CD27 cells) (human, UniProt P26842 20-260)
# T1 sequence (looked up): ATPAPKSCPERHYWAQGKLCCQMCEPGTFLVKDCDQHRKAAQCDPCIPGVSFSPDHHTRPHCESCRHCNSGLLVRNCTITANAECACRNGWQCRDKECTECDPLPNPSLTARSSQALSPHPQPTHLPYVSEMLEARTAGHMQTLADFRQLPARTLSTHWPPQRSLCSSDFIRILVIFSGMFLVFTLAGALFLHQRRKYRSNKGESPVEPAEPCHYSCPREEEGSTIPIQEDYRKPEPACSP
# T2: CD27 protein (His-tagged, Sino Biological Inc. 10039-H08B1) (human, UniProt P26842 20-192)
# T2 construct: bought; coated onto ELISA plates; also called human CD27; recombinant protein; not shown: His tag
# T2 sequence (looked up): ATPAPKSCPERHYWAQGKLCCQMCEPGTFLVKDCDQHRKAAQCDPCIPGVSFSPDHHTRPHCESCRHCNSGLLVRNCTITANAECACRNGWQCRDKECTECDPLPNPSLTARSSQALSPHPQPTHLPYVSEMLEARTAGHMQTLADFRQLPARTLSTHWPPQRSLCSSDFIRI
# Key:
# [1] = target: T1, CD27 expressed on the cell surface …; assay: cell-based or functional assay
# [2] = target: T1, CD27 expressed on the cell surface …; assay: cellular binding assay, HT1080_CD27 cells
# [3] = target: T2, CD27 protein (His-tagged, Sino …); assay: ELISA on coated His-tagged CD27
# Also: test concentration or dose not given here.
Binder,"IL-8, cross-linked by F(ab')2 fragment [abs. corr.] [1] [abs. corr.]",IL-8 [abs. corr.] [1] [abs. corr.],Cellular binding assay [RFU] [2] [RFU],ELISA [abs. corr.] [3] [abs. corr.]
"P018.S.03.A.D03 (antibody, V domains shown, V regions on human Ig constant parts; also called AB27_48) VH: QEQLVESGGGLVQPEGSLTLTCTASGFSFNNNYVMSWVRQAPGKGLEWIGTIYVVSGSTYYASWVNGRFSISKTSSTTVTLQMTSLTDADTATYFCARDQLYNSGYDFDLWGPGTLVIVSS VL: AQVLTQTASPVSAAVGSTVTISCQSSQSVYNNNELSWYQQKPGQPPKLLIYQASKLASGVSSRFSGSESGTQFTLTISGVQSDDAATYYCQGTYYRSGLDNGFGGGTEVVVK",1.05,0.281,320,3.22
"P018.S.06.A.A02 (antibody, V domains shown, V regions on human Ig constant parts; also called AB27_95) VH: QEQLVESGGGLVQPEGSLTLTCTSSGFSLNSNYYISWVRQAPGKGLEWIACIDAGSGSTWYASWVKGRFTISKTSSTTVTLQMTSLTAADTATYFCARDDIGTSYEYYFGLWGPGTLVTVSS VL: DVVLTQTPASVSEPVGGTVTIKCQASQTISSYLAWYQQKSGQPPKLLIYSASTLASGVSSRFKGSGSGTEYTLTISDLESADAATYYCQTYYGSDSYVFGGGTEVVVK",1.81,0.737,366,3.23
"P018.S.02.A.G04 (antibody, V domains shown, V regions on human Ig constant parts; also called AB27_39) VH: QSLEESGGRLVTPGGSLTLTCTVSGIDLSSYAMGWVRQAPGKGLEYIGIIYTSNRTHYATWAKGRFTISKSSTTVDLKATSLTTEDTATYFCGRYGRGSGGYYYGMDLWGPGTLVTVSS VL: DIVMTQTPASVEAAVGGTVTIKCQASQSGDNYCSWYQQKPGQPPKLLIYQASKLTSGVPSRFRGSRSGTEYTLTISDLESADAATYYCQNYCAGSGVCLGIAFGGGTEVVVK",1.67,0.205,196,3.19
"P018.S.07.A.G04 (antibody, V domains shown, V regions on human Ig constant parts; also called AB27_130) VH: QSLEESGGRLVTPGTPLTLTCTVSGIDLSSYAMGWVRQAPGKGLEYIAIIYTTNRTHYATWAKGRFTISKSSTTVDLKATSLTTEDTATYFCGRYGRGSGGYYYGMDLWGPGTLVTVSS VL: DIVMTQTPASVEAAVGGTVTIKCQASQSGDNYCSWYQQKPGQPPKLLIYQASKLTSGVPSRFRGSRSGTEYTLTISDLESADAATYYCQNYCAGSGVCLGIAFGGGTEVVVK",1.74,0.274,177,3.16
"P018.S.02.A.A01 (antibody, V domains shown, V regions on human Ig constant parts; also called AB27_27) VH: QSVEESGGRLVTPGTPLTLTCTVSGIDLSRYAMGWVRQAPGKGLEYIGIISSSGSTYYASWIKGRFTISKTSTTVDLKITSPTTEDTATYFCARSPYASTSASAFNLWGPGTLVTVSS VL: AFELTQTPSSVEAAVGGTVTIKCQASQSISSWLSWYQQKPGQPPKLLIYEASKLASGVPSRFKGSGSGTQFTLTISDLESADAATYYCQSYSSTTTNTFGGGTEVVVK",1.62,0.4,350,3.23
"P018.S.08.A.A03 (antibody, V domains shown, V regions on human Ig constant parts; also called AB27_136) VH: QSLEESGGRLVTPGTPLTLTCTASGFSLSSYGMIWVRQAPGKGLEWIGMIIDVTYTYYASWAKGRFTISKTSTTVDLKMTSLTTEDTATYFCARTPGYGIYAYGNLWGQGTLVTVSS VL: AQVLTQTPSPVSAAVGGTVTISCQSSQSVYGNNWLAWYQQKPGQPPKLLIYYASTLASGVPSRFKGSGSGTQFTLTISEVQSDDAATYYCQGYYSSAAYVFGGGTEVVVK",1.64,0.276,342,3.21
"P018.S.09.A.E05 (antibody, V domains shown, V regions on human Ig constant parts; also called AB27_155) VH: QSLEESGGRLVTPGTPLTLTCTVSGIDLSRYDMSWVRQAPGKGLEWIGFIGASGSTYYASWVKGRFTISKTSTTVDLKITSPTTEDTATYFCAREETDSRGYYYSLWGPGTPVTVSS VL: ALVMTQTPASVEAAVGGTVTINCQASQSISDLLGWYQQKPGQPPKLLIYDASDLASGVPSRFSGSGSGTEFTLTISGVQSDDAATYYCQQGYSINNVDNAFGGGTEVVVK",2.17,0.872,353,3.52
"P018.S.06.A.F04 (antibody, V domains shown, V regions on human Ig constant parts; also called AB27_109) VH: QQQLEESGGGLVKPEGSLTLTCKASGFTLSSYLMCWVRQAPGKGLELIGCIGTYSGATYYGSWAKDRFTIAKTSSTTVTLQMTSLTAADTATYFCARDYNFALWGPGTLVTVSS VL: AIVMTQTPSSKSVPVGDTVTINCQASESVYNNNYLSWFQQKPGQPPKLLIYGASTLTSGVPSRFKGSGSGTQFTLTISDVVSDDAATYYCAGYKSSWTDGNAFGGGTEVVVK",1.16,0.678,338,3.18
"P018.S.09.A.A05 (antibody, V domains shown, V regions on human Ig constant parts; also called AB27_145) VH: QSVEESGGRLVTPGTPLTLTCTVSGFSLSSYAMSWVRQAPGKGLEWIGYIWSGGTTDYASWAKGRFTISKTSTTVDLKITDPTTEDTATYFCARGLGDRGSSDYYMPLKLWGQGTLVTVSS VL: AAVLTQTPSPVSAAVGGTVTINCQASEDIESYLAWYQQKPGQPPKLLIYSTSNLASGVSSRFRGSGSGTQLTLTISDLESADAATYYCQCTYDGSSAVWGAFGGGTEVVVK",1.95,0.504,214,3.17
"P018.S.10.A.C03 (antibody, V domains shown, V regions on human Ig constant parts; also called AB27_172) VH: QSVEESGGRLVTPGTPLTLTCTVSGFSLSSYYMIWVRQAPGKGLEWIGIINTSGGAYYATWANGRFTISRTSTTVDLKITSPTTEDTATYFCARYLDNGFYCPDLWGQGTLVIVSS VL: DIVMTQTPSSVSEAVGGTVTIKCQASEDIYTLLAWYQQKPGQPPKLLIYKASILASGVSSRFKGGGSGADFTLTISDLESADAATYYCQSTYYGAAYIGAFGGGTEVVVK",1.56,0.079,360,3.21
"P018.S.03.A.D06 (antibody, V domains shown, V regions on human Ig constant parts; also called AB27_51) VH: QSLEESGGRLVTPGTPLTLTCTASGFSLSSYWMSWVRQAPGKGLEWIGYIYAGSGSAYYASWVKGRFTISKTSTTVDLKISSPTTEDTATYFCGRGNYDGYINVYDLWGPGTLVTVSS VL: DVVMTQTPSSVEAAVGGTVTIKCQASQSIGSYLAWYQKKPGQPPKLLIYAAANLAAGVPSRFKGSGSGTDFTLTINDLESADAATYYCQNNNGAYGSAYVGAFGGGTEVVVK",1.05,0.245,360,3.19
"P018.S.07.A.E05 (antibody, V domains shown, V regions on human Ig constant parts; also called AB27_126) VH: QSLEESGGRLVTPGGSLTLTCTVSGIDLSSYAMIWVRQAPGKGLEWIGYIYGGSGSTWYASWAKGRFTISKTSSTTVDLKMTSLTTEDTATYFCARAYDSGYIGNSFYIFDPWGPGTLVTVSS VL: DIVMTQTPASVSATVGGTVTIKCQASQSISSRLAWYQQKPGQPPKLLIYSASTLASGVSSRFRGSGSGTEFTLTISDLESADGATYYCAGYGGLGITAFGGGTEVVVK",1.15,0.055,317,3.2
"P018.S.01.A.E05 (antibody, V domains shown, V regions on human Ig constant parts; also called AB27_17) VH: QEQLVESGGGLVQPEGSLTLTCTASGFSFSSRYYMCWVRQAPGKGLEWIACIAPDVSGSAYYATWAKGRITISETSSTTVTLRMTSLTAADTAIYFCARSVPGSLFYFQLWGPGTVVTVSS VL: AAVLTQTPPSVSAAVGGTVTIKCQSSQSVYNKNEFSWYQQKPGQPPKLLIYDASTLASGVPSRFKGSGSGTQFTLTISDLESDDAATYYCQGSYYSSGSYTAFGGGTEVVVK",1.33,0.209,420,3.22
"P018.S.03.A.G03 (antibody, V domains shown, V regions on human Ig constant parts; also called AB27_57) VH: QEHLEESGGGLVQPEGSLTLTCKASGFDFSSNYYMSWVRQAPGTGLEWIACIDSGSSGSTWYASWVKGRFTISKTSSTTVTLQMTSLTDADTAAYFCVRDDVGSSYEYYFSLWGPGTLVTVSS VL: DVVMTQTPASVSEPVGGTVTIKCQASQSIGSFLGWYQQKPGQPPKLLIYQASKLASGVPSRFKGSGSGTEYTLTISDLESADAAAYYCQTYFGSDSYVFGGGTEVVVK",1.58,0.546,292,3.21
"P018.S.01.A.C05 (antibody, V domains shown, V regions on human Ig constant parts; also called AB27_9) VH: QSLEESGGGLVQPEGSLTLTCTASGFSFSSRYYMCWVRQAPGKGLELIACIDTSSGSTWYASWAKGRFTVSKTSSTTVTLQMTSLTAADTATYFCARDLYHENSDGDWWGPGTLVTVSS VL: AFELTQTPSSVEAAVGGTVTIKCQASESINNYLAWYQQKPGQPPKLLIYKASTLASGVSSRFKGSGSGTDFTLTISGVQSDDAATYYCQSYYGASGSGSNVFGGGTEVVVK",1.4,0.327,349,3.19
"P018.S.10.A.B01 (antibody, V domains shown, V regions on human Ig constant parts; also called AB27_166) VH: QSLEESGGRLVTPGTPLTLTCTASGFSLSSYYMSWVRQAPGKGLEWIGIIDRAGTTYYATWAKGRFTISRTSTTVDLKMTSPTTEDTGTYFCARNFIYGVGTYYGSDLWGQGTLVTVSS VL: DVVMTQTPASVSDPVGGTVTIKCQASESISRRLAWYQQKPGQPPKLLIYGASDLASGVPSRFSGSGSGTEFTLTISGVQSDDAATYYCQDTDYGSGHLGAFGGGTEVVVK",1.04,0.08,333,3.19
